Broadly, the Kd is the concentration at which binding is half-saturated.

Holding throughout (experiment): MST
Test [1] deals with H3K9me3 MLA (Methyl Lysine Analog) histone H3 (UniProt P84233).
Test [2] deals with H3K9me1 MLA (Methyl Lysine Analog) histone H3 (UniProt P84233).
The target of test [3] is H3K9me2 MLA (Methyl Lysine Analog) histone H3 (UniProt P84233).

“EAP-1 chromodomain fused to GST (EAP-1chromo) (domain or fragment)”: the Kd amounted to 157 nM in test [1], 6140 nM in test [2] and 2050 nM in test [3].

Values taken from article PMC4012616.
